Here are results for 1 molecule from patent US8728472 (University of Texas, dated 2014).

Assay [1] concerns the target T1, p25 generated in rat brain or rat striatal neurons by ischemia (MCAO or OGD) (rat, UniProt P61809 99-307 (mouse entry)).
T1 construct: Endogenous protein in tissue sections, lysates and primary cultures; also called p25 generated by MCAO; p25 generated in response to focal ischemia
Briefly: detection of p25 in stroked rat brain; immunostains of striatum and cortex (FIG. 7D).

A further assay deals with T2, p35 (Mus musculus (Mouse), UniProt P61809 1-307).
T2 construct: also called Cdk5 cofactor p35
T2 sequence (P61809 whole entry): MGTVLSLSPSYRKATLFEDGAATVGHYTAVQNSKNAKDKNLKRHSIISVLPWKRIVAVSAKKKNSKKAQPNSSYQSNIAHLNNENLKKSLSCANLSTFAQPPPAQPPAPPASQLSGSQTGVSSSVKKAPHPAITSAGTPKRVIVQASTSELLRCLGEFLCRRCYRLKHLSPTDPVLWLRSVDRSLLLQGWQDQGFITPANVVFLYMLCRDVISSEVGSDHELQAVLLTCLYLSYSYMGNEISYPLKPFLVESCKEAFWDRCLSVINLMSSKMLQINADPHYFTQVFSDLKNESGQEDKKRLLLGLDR
Briefly: immunoblot of striatal lysates from p25 over-expressing mice (FIG. 2B). (Immunoblotting shows a protein as a band on a membrane.)

Assay [2] has as its target T3, Cdk5 expressed in HEK293T cells from a transfected eukaryotic expression plasmid (UniProt Q00535 1-292).
T3 construct: also called cyclin-dependent kinase 5
The assay is described as follows: immunohistochemical staining of transfected HEK293T cells (FIG. 2C).

T1 sequence (P61809 99-307 limits assumed): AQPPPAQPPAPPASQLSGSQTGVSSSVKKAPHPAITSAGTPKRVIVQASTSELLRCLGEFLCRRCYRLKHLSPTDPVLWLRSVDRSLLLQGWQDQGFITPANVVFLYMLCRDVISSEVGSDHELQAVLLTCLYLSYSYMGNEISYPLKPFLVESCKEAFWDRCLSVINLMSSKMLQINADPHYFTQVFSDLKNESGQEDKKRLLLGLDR

B1: anti-p25 monoclonal antibody 1C4 (antibody, V domains shown)
VH: QIQLEESGPELRKPGETVRISCKASGYTFTTAGMQWVQKMPGTGLKWIGWINTHSGVPKYAGEFTGRFDFSLETSASTAYLQIVNLKNEDTATYFCARYGKFGEMDYWGQGTSVTVSS
VL: IVMTQSPASLAVSLGQRATISCRSSETVDSDGNSFMHWYQQKPGQSPKLLLYLASTLESGVPARFSGSGSRTDFTLTIDPVEADDAATYYCHQNNEDPTFGGGTKLEIKR
notes: Mouse monoclonal antibody from hybridoma 1C4; also called p25 mAb; anti-p25 antibody
With B1, the binding result in assay [1] was “binds”; in the assay with p35, “no binding”; in assay [2] it was “no binding”.
